Measurements taken from patent US20160176953A1 (Regeneron, published 2016).

Tests used:
Assay in all cases: cell-based or functional assay
[1] = molecular target: Hemagglutinin of H1-WS33 virus (Influenza A virus (H1-WS33))
[2] = molecular target: Hemagglutinin of H1-IVR148 virus (Influenza A virus (H1-IVR148))
[3] = molecular target: Hemagglutinin of H13-MD77 virus (Influenza A virus (H13-MD77))
[4] = molecular target: Hemagglutinin of H16-DE09 virus (Influenza A virus (H16-DE09))
[5] = molecular target: Hemagglutinin of H1N1 A/California/07/2009 virus (Influenza A virus A/California/07/2009 …)
[6] = molecular target: Hemagglutinin of H9-RG26 virus (Influenza A virus (H9-RG26))

B1: H1H11729P (antibody, V domains shown)
VH: QVQLVQSGAEVKKSGSSVKVSCKASGGTFSSYAISWVRQAPGQGLEWMGGIIPIFGTPSYAQKFQDRVTITTDESTSTVYMELSSLRSEDTAVYYCARQQPVYQYNMDVWGQGTTVTVSS
VL: DIQMTQSPSSLSASVGDRVTITCRASQGIRNNLGWYQQKPLKAPKRLIYAASSLQSGVPSRFSGSGSGTEFTLTISSLQPEDFATYYCLQYNNYPWTFGQGTKVEIK
- IC50 (nM), cell viability microneutralization assay (MDCK) [1]: 2.47 nM
- IC50 (nM), cell viability microneutralization assay (MDCK) [2]: 130 nM
- IC50 (nM), cell viability microneutralization assay (MDCK) [3]: 33.8 nM
- IC50 (nM), cell viability microneutralization assay (MDCK) [4]: 21.6 nM
- IC50 (nM), cell viability microneutralization assay (MDCK) [5]: 4.54 nM
- IC50 (nM), cell viability microneutralization assay (MDCK) [6]: 14.9 nM

B2: H2aM11829N (antibody, V domains shown)
VH: QVHLVQSGPEVKKPGSSVKVSCKASGVTFISHAISWVRQAPGQGLEWVGGIIAIFGTTNYAQKFQGRVTVTTDKSTNTVYMELSRLRSEDTAIYYCARGETYYEGNFDFWGQGTLVTVSS
VL: VIQMTQSPSSLSASVGDRVTITCRASQSVRSNLNWYQQTPGKAPRLLIYAASSLQSGVPSRFSGSGSGTDFTLTISSLQPEDFATYYCQQSYSTPPITFGQGTRLEIK
- IC50 (nM), cell viability microneutralization assay (MDCK) [1]: 1.68 nM
- IC50 (nM), cell viability microneutralization assay (MDCK) [2]: 48 nM
- IC50 (nM), cell viability microneutralization assay (MDCK) [3]: 2.11 nM
- IC50 (nM), cell viability microneutralization assay (MDCK) [4]: 7.39 nM
- IC50 (nM), cell viability microneutralization assay (MDCK) [5]: 3.5 nM
- IC50 (nM), cell viability microneutralization assay (MDCK) [6]: 10.2 nM
